The results in this text go back to PMC10597343.

The target in this series is T1, AcrR (Escherichia coli) (UniProt P0ACS9).
T1 sequence: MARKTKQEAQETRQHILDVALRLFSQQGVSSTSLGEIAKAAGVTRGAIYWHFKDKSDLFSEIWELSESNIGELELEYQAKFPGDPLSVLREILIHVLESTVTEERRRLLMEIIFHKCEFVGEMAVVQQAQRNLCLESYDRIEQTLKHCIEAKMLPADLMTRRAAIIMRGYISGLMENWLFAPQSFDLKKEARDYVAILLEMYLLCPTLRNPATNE
Nature of the series: EMSA. The following applies: EMSA with LightShift Chemiluminescent EMSA Kit, AcrR 0, 0.4 and 1 uM, as in ref 35; buffer, salt, pH and temperature not stated. A general note: In EMSA bound probe runs differently from free probe, usually more slowly.

Take “TGCAAGTAGTAAATATGACAAGTTGATGTCATAAATGTGTTTCAGCAACTCGGAGGTATGCATTATTCCCACCCAGAATAACCAACTTTATTTTTATGCGGTTTCACCGCACCCCGTGATGTCGCCGGGAAGCCCCGGTAAAAAATAATTAGCATTAGAATAGTTGCGAT (double strand) [flhDCpS2]”: the binding entry was “no binding”.
With “CTTGCCATGCGATTTCCTTTTATCTTTCGACACGTAAAACGAATACCGGGGTTATCGGTCTGAATTGCGCAAAGTTTACGTTTAATTGTTTTTTTTAATAGCGGGAATAAGGGGCAGAGAAAAGAGTATTTCGGCGACTAACAAAAAATGGCTGTTTTTGAAAAAAATTCTAAAGGTTGTTTTACGACAGACGATAACAGGGTTGACGGCGATTGAGCCGACGGGTGGAAACCCAATACGTAATCAACGA (double strand) [fliDSTp]” the entry was “no binding”.
